In patent US20150203577A1 (Chugai, published 2015):

T1: mouse FcγRIII (mouse, UniProt P08508 31-215)
T1 construct: Extracellular domain with C-terminal His tag; also called mFcγRIII; mFcgRIII
T1 chain: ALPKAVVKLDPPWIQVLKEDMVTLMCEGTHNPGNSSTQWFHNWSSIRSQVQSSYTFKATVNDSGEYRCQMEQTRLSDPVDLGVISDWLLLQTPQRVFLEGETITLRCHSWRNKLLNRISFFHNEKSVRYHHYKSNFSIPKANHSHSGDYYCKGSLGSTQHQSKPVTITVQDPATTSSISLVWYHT

T2: mouse FcγRII (mouse, UniProt P08101 30-210)
T2 construct: Extracellular domain with C-terminal His tag; also called mFcγRII; mFcgRII
T2 sequence: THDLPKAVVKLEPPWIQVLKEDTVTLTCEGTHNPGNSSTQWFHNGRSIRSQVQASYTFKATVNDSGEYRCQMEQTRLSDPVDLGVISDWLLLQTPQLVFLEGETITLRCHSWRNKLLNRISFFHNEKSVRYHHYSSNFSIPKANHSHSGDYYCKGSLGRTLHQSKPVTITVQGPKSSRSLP


Legend:
[1] = target: T1, mouse FcγRIII; test: SPR (Biacore T200); KD of H237-mIgG1/MRAL-k0 / KD of variant
[2] = target: T2, mouse FcγRII; test: as above
[3] = target: T1, mouse FcγRIII; test: SPR (Biacore T200); KD of H237-MB630/MRAL-k0 / KD of variant
[4] = target: T2, mouse FcγRII; test: as above

Row | Binder | relative mFcγRIII-binding activity (mIgG1 = 1) [1] [fold] | relative mFcγRII-binding activity (mIgG1 = 1) [2] [fold] | Relative mFcγRIII-binding activity (MB630 = 1) [3] [fold] | Relative mFcγRII-binding activity (MB630 = 1) [4] [fold]
1 | MB812 (antibody, mouse IgG1, kappa, CH name; VH H237 + CH, L chain MRAL-k0; copies: 2 + 2) heavy: QVQLQESGPGLVKPSETLSLTCAVSGHSISHDHAWSWVRQPPGEGLEWIGFISYSGITNYNPSLQGRVTISRDNSKNTLYLQMNSLRAEDTAVYYCARSLARTTAMDYWGEGTLVTVSSAKTTPPSVYPLAPGSAAQTNSMVTLGCLVKGYFPEPVTVTWNSGSLSSGVHTFPAVLQSDLYTLSSSVTVPSSTWPSETVTCNVAHPASSTKVDKKIVPRDCGCKPCICEPNEVELVFIFPPKPKDVLTITLTPKVTCVVVDISKDDPEVQFSWFVDDVEVHTAQTQPREEQFNSTFRSVSELPIMHQDWLNGKEFKCRVDSAGFPAPIEKTISKTKGRPKAPQVYTIPPPKEQMAKDKVSLTCMITDFFPEDITVEWQWNGQPAENYKNTQPIMDTDGSYFVYSKLNVQKSNWEAGNTFTCSVLHEGLHNHHTEKSLSHSPGK light: not shown | 0.68 | 33.4 | 2.93 | 2.54
2 | MB817 (antibody, mouse IgG1, kappa, CH name; VH H237 + CH, L chain MRAL-k0; copies: 2 + 2) heavy: QVQLQESGPGLVKPSETLSLTCAVSGHSISHDHAWSWVRQPPGEGLEWIGFISYSGITNYNPSLQGRVTISRDNSKNTLYLQMNSLRAEDTAVYYCARSLARTTAMDYWGEGTLVTVSSAKTTPPSVYPLAPGSAAQTNSMVTLGCLVKGYFPEPVTVTWNSGSLSSGVHTFPAVLQSDLYTLSSSVTVPSSTWPSETVTCNVAHPASSTKVDKKIVPRDCGCKPCICEPNEVELVFIFPPKPKDVLTITLTPKVTCVVVDISKDDPEVQFSWFVDDVEVHTAQTQPREEQFNSTFRSVSELPIMHQDWLNGKEFKCRVMSAGFPAPIEKTISKTKGRPKAPQVYTIPPPKEQMAKDKVSLTCMITDFFPEDITVEWQWNGQPAENYKNTQPIMDTDGSYFVYSKLNVQKSNWEAGNTFTCSVLHEGLHNHHTEKSLSHSPGK light: not shown | 0.52 | 28.5 | 2.27 | 2.17
3 | MB814 (antibody, mouse IgG1, kappa, CH name; VH H237 + CH, L chain MRAL-k0; copies: 2 + 2) heavy: QVQLQESGPGLVKPSETLSLTCAVSGHSISHDHAWSWVRQPPGEGLEWIGFISYSGITNYNPSLQGRVTISRDNSKNTLYLQMNSLRAEDTAVYYCARSLARTTAMDYWGEGTLVTVSSAKTTPPSVYPLAPGSAAQTNSMVTLGCLVKGYFPEPVTVTWNSGSLSSGVHTFPAVLQSDLYTLSSSVTVPSSTWPSETVTCNVAHPASSTKVDKKIVPRDCGCKPCICEPNEVELVFIFPPKPKDVLTITLTPKVTCVVVDISKDDPEVQFSWFVDDVEVHTAQTQPREEQFNSTFRSVSELPIMHQDWLNGKEFKCRVDSAAFPAYIEKTISKTKGRPKAPQVYTIPPPKEQMAKDKVSLTCMITDFFPEDITVEWQWNGQPAENYKNTQPIMDTDGSYFVYSKLNVQKSNWEAGNTFTCSVLHEGLHNHHTEKSLSHSPGK light: not shown | 0.34 | 18 | 1.48 | 1.37
4 | MB816 (antibody, mouse IgG1, kappa, CH name; VH H237 + CH, L chain MRAL-k0; copies: 2 + 2) heavy: QVQLQESGPGLVKPSETLSLTCAVSGHSISHDHAWSWVRQPPGEGLEWIGFISYSGITNYNPSLQGRVTISRDNSKNTLYLQMNSLRAEDTAVYYCARSLARTTAMDYWGEGTLVTVSSAKTTPPSVYPLAPGSAAQTNSMVTLGCLVKGYFPEPVTVTWNSGSLSSGVHTFPAVLQSDLYTLSSSVTVPSSTWPSETVTCNVAHPASSTKVDKKIVPRDCGCKPCICEPNEVELVFIFPPKPKDVLTITLTPKVTCVVVDISKDDPEVQFSWFVDDVEVHTAQTQPREEQFNSTFRSVSELPIMHQDWLNGKEFKCRVMSDAFPAPIEKTISKTKGRPKAPQVYTIPPPKEQMAKDKVSLTCMITDFFPEDITVEWQWNGQPAENYKNTQPIMDTDGSYFVYSKLNVQKSNWEAGNTFTCSVLHEGLHNHHTEKSLSHSPGK light: not shown | 0.65 | 30.4 | 2.84 | 2.31
5 | MB818 (antibody, mouse IgG1, kappa, CH name; VH H237 + CH, L chain MRAL-k0; copies: 2 + 2) heavy: QVQLQESGPGLVKPSETLSLTCAVSGHSISHDHAWSWVRQPPGEGLEWIGFISYSGITNYNPSLQGRVTISRDNSKNTLYLQMNSLRAEDTAVYYCARSLARTTAMDYWGEGTLVTVSSAKTTPPSVYPLAPGSAAQTNSMVTLGCLVKGYFPEPVTVTWNSGSLSSGVHTFPAVLQSDLYTLSSSVTVPSSTWPSETVTCNVAHPASSTKVDKKIVPRDCGCKPCICEPNEVELVFIFPPKPKDVLTITLTPKVTCVVVDISKDDPEVQFSWFVDDVEVHTAQTQPREEQFNSTFRSVSELPIMHQDWLNGKEFKCRVMSAAFPAFIEKTISKTKGRPKAPQVYTIPPPKEQMAKDKVSLTCMITDFFPEDITVEWQWNGQPAENYKNTQPIMDTDGSYFVYSKLNVQKSNWEAGNTFTCSVLHEGLHNHHTEKSLSHSPGK light: not shown | 0.29 | 15.6 | 1.25 | 1.19
6 | MB819 (antibody, mouse IgG1, kappa, CH name; VH H237 + CH, L chain MRAL-k0; copies: 2 + 2) heavy: QVQLQESGPGLVKPSETLSLTCAVSGHSISHDHAWSWVRQPPGEGLEWIGFISYSGITNYNPSLQGRVTISRDNSKNTLYLQMNSLRAEDTAVYYCARSLARTTAMDYWGEGTLVTVSSAKTTPPSVYPLAPGSAAQTNSMVTLGCLVKGYFPEPVTVTWNSGSLSSGVHTFPAVLQSDLYTLSSSVTVPSSTWPSETVTCNVAHPASSTKVDKKIVPRDCGCKPCICEPNEVELVFIFPPKPKDVLTITLTPKVTCVVVDISKDDPEVQFSWFVDDVEVHTAQTQPREEQFNSTFRSVSELPIMHQDWLNGKEFKCRVMSAAFPAYIEKTISKTKGRPKAPQVYTIPPPKEQMAKDKVSLTCMITDFFPEDITVEWQWNGQPAENYKNTQPIMDTDGSYFVYSKLNVQKSNWEAGNTFTCSVLHEGLHNHHTEKSLSHSPGK light: not shown | 0.32 | 18.1 | 1.4 | 1.38
7 | MB820 (antibody, mouse IgG1, kappa, CH name; VH H237 + CH, L chain MRAL-k0; copies: 2 + 2) heavy: QVQLQESGPGLVKPSETLSLTCAVSGHSISHDHAWSWVRQPPGEGLEWIGFISYSGITNYNPSLQGRVTISRDNSKNTLYLQMNSLRAEDTAVYYCARSLARTTAMDYWGEGTLVTVSSAKTTPPSVYPLAPGSAAQTNSMVTLGCLVKGYFPEPVTVTWNSGSLSSGVHTFPAVLQSDLYTLSSSVTVPSSTWPSETVTCNVAHPASSTKVDKKIVPRDCGCKPCICEPNEVELVFIFPPKPKDVLTITLTPKVTCVVVDISKDDPEVQFSWFVDDVEVHTAQTQPREEQFNSTFRSVSELPIMHQDWLNGKEFKCRVMSAAFPAPIYKTISKTKGRPKAPQVYTIPPPKEQMAKDKVSLTCMITDFFPEDITVEWQWNGQPAENYKNTQPIMDTDGSYFVYSKLNVQKSNWEAGNTFTCSVLHEGLHNHHTEKSLSHSPGK light: not shown | 0.33 | 19.5 | 1.43 | 1.49
8 | MB813 (antibody, mouse IgG1, kappa, CH name; VH H237 + CH, L chain MRAL-k0; copies: 2 + 2) heavy: QVQLQESGPGLVKPSETLSLTCAVSGHSISHDHAWSWVRQPPGEGLEWIGFISYSGITNYNPSLQGRVTISRDNSKNTLYLQMNSLRAEDTAVYYCARSLARTTAMDYWGEGTLVTVSSAKTTPPSVYPLAPGSAAQTNSMVTLGCLVKGYFPEPVTVTWNSGSLSSGVHTFPAVLQSDLYTLSSSVTVPSSTWPSETVTCNVAHPASSTKVDKKIVPRDCGCKPCICEPNEVELVFIFPPKPKDVLTITLTPKVTCVVVDISKDDPEVQFSWFVDDVEVHTAQTQPREEQFNSTFRSVSELPIMHQDWLNGKEFKCRVDSAAFPAFIEKTISKTKGRPKAPQVYTIPPPKEQMAKDKVSLTCMITDFFPEDITVEWQWNGQPAENYKNTQPIMDTDGSYFVYSKLNVQKSNWEAGNTFTCSVLHEGLHNHHTEKSLSHSPGK light: not shown | 0.3 | 16.3 | 1.29 | 1.24
9 | MB815 (antibody, mouse IgG1, kappa, CH name; VH H237 + CH, L chain MRAL-k0; copies: 2 + 2) heavy: QVQLQESGPGLVKPSETLSLTCAVSGHSISHDHAWSWVRQPPGEGLEWIGFISYSGITNYNPSLQGRVTISRDNSKNTLYLQMNSLRAEDTAVYYCARSLARTTAMDYWGEGTLVTVSSAKTTPPSVYPLAPGSAAQTNSMVTLGCLVKGYFPEPVTVTWNSGSLSSGVHTFPAVLQSDLYTLSSSVTVPSSTWPSETVTCNVAHPASSTKVDKKIVPRDCGCKPCICEPNEVELVFIFPPKPKDVLTITLTPKVTCVVVDISKDDPEVQFSWFVDDVEVHTAQTQPREEQFNSTFRSVSELPIMHQDWLNGKEFKCRVDSAAFPAPIYKTISKTKGRPKAPQVYTIPPPKEQMAKDKVSLTCMITDFFPEDITVEWQWNGQPAENYKNTQPIMDTDGSYFVYSKLNVQKSNWEAGNTFTCSVLHEGLHNHHTEKSLSHSPGK light: not shown | 0.3 | 17.6 | 1.3 | 1.34
